{
  "source": "patent US20160280750A1",
  "about": "(NEWSOUTH INNOVATIONS, published 2016)",
  "data": [
    {"molecular_target": "T1, HLA-B*2705 (human, UniProt P01889 25-302 at identity 0.93))", "T1 construct": "MHC class I molecule assembled with candidate peptides in the REVEAL assay (ProImmune)", "T1 MHC heavy": "not shown", "experiment": "REVEAL MHC-peptide binding assay, incorporation into HLA-B*2705", "values": [
      {"binder": "RRRWRRLTV", "note": "[Peptide I.D. 36 RRRWRRLTV]", "% Positive Control (REVEAL binding score)": "44 % of positive control"},
      {"binder": "NLRSIDLQD", "note": "[Peptide I.D. 28 NLRSIDLQD]", "% Positive Control (REVEAL binding score)": "0.17 % of positive control"},
      {"binder": "IDLQDFFSS", "note": "[Peptide I.D. 32 IDLQDFFSS]", "% Positive Control (REVEAL binding score)": "0.13 % of positive control"},
      {"binder": "HTRRQLEDI", "note": "[Peptide I.D. 8 HTRRQLEDI]", "% Positive Control (REVEAL binding score)": "0.04 % of positive control"},
      {"binder": "RSIDLQDFF", "note": "[Peptide I.D. 30 RSIDLQDFF]", "% Positive Control (REVEAL binding score)": "0.08 % of positive control"},
      {"binder": "DLQDFFSSL", "note": "[Peptide I.D. 33 DLQDFFSSL]", "% Positive Control (REVEAL binding score)": "0.35 % of positive control"},
      {"binder": "ALQYLRLSH", "note": "[Peptide I.D. 22 ALQYLRLSH]", "% Positive Control (REVEAL binding score)": "0.13 % of positive control"},
      {"binder": "SIDLQDFFS", "note": "[Peptide I.D. 31 SIDLQDFFS]", "% Positive Control (REVEAL binding score)": "0.26 % of positive control"},
      {"binder": "DEYFKRFNA", "note": "[Peptide I.D. 14 DEYFKRFNA]", "% Positive Control (REVEAL binding score)": "0.06 % of positive control"},
      {"binder": "NALQYLRLS", "note": "[Peptide I.D. 21 NALQYLRLS]", "% Positive Control (REVEAL binding score)": "0.11 % of positive control"},
      {"binder": "EYFKRFNAL", "note": "[Peptide I.D. 15 EYFKRFNAL]", "% Positive Control (REVEAL binding score)": "0.48 % of positive control"},
      {"binder": "LQDFFSSLI", "note": "[Peptide I.D. 34 LQDFFSSLI]", "% Positive Control (REVEAL binding score)": "0.11 % of positive control"},
      {"binder": "LRSIDLQDF", "note": "[Peptide I.D. 29 LRSIDLQDF]", "% Positive Control (REVEAL binding score)": "0.08 % of positive control"},
      {"binder": "ARGQPGVMG", "note": "[Peptide I.D. 37 ARGQPGVMG]", "% Positive Control (REVEAL binding score)": "0 % of positive control"},
      {"binder": "QYLRLSHNE", "note": "[Peptide I.D. 24 QYLRLSHNE]", "% Positive Control (REVEAL binding score)": "0.5 % of positive control"},
      {"binder": "KHTRRQLED", "note": "[Peptide I.D. 7 KHTRRQLED]", "% Positive Control (REVEAL binding score)": "0.04 % of positive control"},
      {"binder": "RQLEDIRLD", "note": "[Peptide I.D. 11 RQLEDIRLD]", "% Positive Control (REVEAL binding score)": "0.5 % of positive control"},
      {"binder": "QLEDIRLDG (Opticin nonamer)", "note": "[Peptide I.D. 12 QLEDIRLDG]", "% Positive Control (REVEAL binding score)": "0 % of positive control"},
      {"binder": "RFNALQYLR", "note": "[Peptide I.D. 19 RFNALQYLR]", "% Positive Control (REVEAL binding score)": "1.2 % of positive control"},
      {"binder": "HKHTRRQLE", "note": "[Peptide I.D. 6 HKHTRRQLE]", "% Positive Control (REVEAL binding score)": "0 % of positive control"},
      {"binder": "LEDIRLDGN", "note": "[Peptide I.D. 13 LEDIRLDGN]", "% Positive Control (REVEAL binding score)": "2.17 % of positive control"},
      {"binder": "FNALQYLRL", "note": "[Peptide I.D. 20 FNALQYLRL]", "% Positive Control (REVEAL binding score)": "1.81 % of positive control"},
      {"binder": "TRRQLEDIR", "note": "[Peptide I.D. 9 TRRQLEDIR]", "% Positive Control (REVEAL binding score)": "0.02 % of positive control"},
      {"binder": "YFKRFNALQ", "note": "[Peptide I.D. 16 YFKRFNALQ]", "% Positive Control (REVEAL binding score)": "0.47 % of positive control"},
      {"binder": "FKRFNALQY", "note": "[Peptide I.D. 17 FKRFNALQY]", "% Positive Control (REVEAL binding score)": "0.15 % of positive control"},
      {"binder": "LNLRSIDLQ", "note": "[Peptide I.D. 27 LNLRSIDLQ]", "% Positive Control (REVEAL binding score)": "0.11 % of positive control"}
    ]},
    {"molecular_target": "T2, HLA-B*2705 (human), P01889", "T2 chain": "not shown", "experiment": "REVEAL MHC-peptide binding assay, incorporation into HLA-B*2705", "values": [
      {"binder": "DPCTTWCDA (modifications not checked)", "note": "[Peptide I.D. 35 …]", "% Positive Control (REVEAL binding score) (% of positive control)": 2.18}
    ]}
  ]
}
